Biological target: PA domain 3 (Bacillus anthracis)
Assay: ELISA

Chain of PA domain 3 (Bacillus anthracis) (P13423 517-624 limits assumed): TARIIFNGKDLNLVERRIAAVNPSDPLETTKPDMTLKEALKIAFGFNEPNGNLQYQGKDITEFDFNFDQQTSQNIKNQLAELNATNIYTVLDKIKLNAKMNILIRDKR

B1: antibody 8A7 (antibody, V domains shown)
VH: EVQLLESGGGLVQPGGSLRLSCAASGFSFSSYAMSWVRQAPGTGLEWVSGISGSGDNIYYADSVKGRFTISRDNSKNTVYMQMNSLRAEDTALYYCAKFSGHYGSGSFHLPEYFQHWGQGTLVTVSS
VL: DIQMTQSPATLSASIGDRVTITCRASQSISSWLAWYQQKPGKAPKVLIYKASRLESGVPSRFSGSGSGTEFTLTISSLQPDDFATYYCQQYNTYWTFGQGTKVEIIR
**Q.** How did the EC50 turn out when B1 was run?
**A.** 0.06 nM
